Measurements taken from paper PMC3077382, “14-3-3 Proteins Regulate Exonuclease 1–Dependent Processing of Stalled Replication Forks” (PLoS Genetics, 2011).

Biological target: T1, Exo1-Myc (S. cerevisiae, UniProt P39875 1-702)
T1 construct: Saccharomyces cerevisiae Exonuclease 1 (Exo1); C-terminal Myc tag added to the endogenous EXO1 gene; also called yeast Exo1; source: S. cerevisiae (W303-1A background), endogenous EXO1 gene tagged; in whole cell extract; immunoprecipitated from control or HU-treated cells for Far Western; not shown: Myc, C-terminal, kept
T1 sequence (looked up): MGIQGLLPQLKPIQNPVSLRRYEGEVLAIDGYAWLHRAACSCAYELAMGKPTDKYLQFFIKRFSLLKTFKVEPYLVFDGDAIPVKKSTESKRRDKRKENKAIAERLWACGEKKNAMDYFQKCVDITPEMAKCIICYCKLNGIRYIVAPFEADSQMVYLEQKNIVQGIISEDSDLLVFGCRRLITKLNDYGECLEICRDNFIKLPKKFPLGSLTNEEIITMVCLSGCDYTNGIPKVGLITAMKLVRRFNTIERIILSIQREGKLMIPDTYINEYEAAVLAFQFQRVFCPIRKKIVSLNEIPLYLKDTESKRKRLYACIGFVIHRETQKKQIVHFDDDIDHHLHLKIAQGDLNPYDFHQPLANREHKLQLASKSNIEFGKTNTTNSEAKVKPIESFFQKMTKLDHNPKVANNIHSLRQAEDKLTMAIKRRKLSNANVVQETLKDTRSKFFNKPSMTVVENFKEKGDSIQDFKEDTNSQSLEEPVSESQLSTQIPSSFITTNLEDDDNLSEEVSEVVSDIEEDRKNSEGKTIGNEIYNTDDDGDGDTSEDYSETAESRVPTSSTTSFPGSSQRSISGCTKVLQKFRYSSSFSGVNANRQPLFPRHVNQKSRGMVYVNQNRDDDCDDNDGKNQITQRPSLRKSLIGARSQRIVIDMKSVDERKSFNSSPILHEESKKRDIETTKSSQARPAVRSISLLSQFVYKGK
Assay: far-Western, overlay or dot blot; Exo1-Myc immunoprecipitated from untreated or HU-treated yeast cells, resolved by SDS-PAGE, transferred to PVDF and denatured/renatured; probed with purified GST-Bmh1 (2 µg)
Settings: both partners purified

- binding result: binds
B1: GST-Bmh1 (natural protein, S. cerevisiae, UniProt P29311 1-267, looked up)
chain: MSTSREDSVYLAKLAEQAERYEEMVENMKTVASSGQELSVEERNLLSVAYKNVIGARRASWRIVSSIEQKEESKEKSEHQVELICSYRSKIETELTKISDDILSVLDSHLIPSATTGESKVFYYKMKGDYHRYLAEFSSGDAREKATNASLEAYKTASEIATTELPPTHPIRLGLALNFSVFYYEIQNSPDKACHLAKQAFDDAIAELDTLSEESYKDSTLIMQLLRDNLTLWTSDMSESGQAEDQQQQQQHQQQQPPAAAEGEAPK
notes: Saccharomyces cerevisiae 14-3-3 protein Bmh1; also called purified recombinant GST-Bmh1
